The values that follow are results of earlier work, collected in PMC4319847.

In data set [1] the target is Myc NLS NLS (Homo sapiens) (UniProt P01106).
Data set [2] deals with SV40 NLS NLS (Simian virus 40) (UniProt P03070).
SV40 NLS NLS (Simian virus 40), sequence (P03070 whole entry, looked up): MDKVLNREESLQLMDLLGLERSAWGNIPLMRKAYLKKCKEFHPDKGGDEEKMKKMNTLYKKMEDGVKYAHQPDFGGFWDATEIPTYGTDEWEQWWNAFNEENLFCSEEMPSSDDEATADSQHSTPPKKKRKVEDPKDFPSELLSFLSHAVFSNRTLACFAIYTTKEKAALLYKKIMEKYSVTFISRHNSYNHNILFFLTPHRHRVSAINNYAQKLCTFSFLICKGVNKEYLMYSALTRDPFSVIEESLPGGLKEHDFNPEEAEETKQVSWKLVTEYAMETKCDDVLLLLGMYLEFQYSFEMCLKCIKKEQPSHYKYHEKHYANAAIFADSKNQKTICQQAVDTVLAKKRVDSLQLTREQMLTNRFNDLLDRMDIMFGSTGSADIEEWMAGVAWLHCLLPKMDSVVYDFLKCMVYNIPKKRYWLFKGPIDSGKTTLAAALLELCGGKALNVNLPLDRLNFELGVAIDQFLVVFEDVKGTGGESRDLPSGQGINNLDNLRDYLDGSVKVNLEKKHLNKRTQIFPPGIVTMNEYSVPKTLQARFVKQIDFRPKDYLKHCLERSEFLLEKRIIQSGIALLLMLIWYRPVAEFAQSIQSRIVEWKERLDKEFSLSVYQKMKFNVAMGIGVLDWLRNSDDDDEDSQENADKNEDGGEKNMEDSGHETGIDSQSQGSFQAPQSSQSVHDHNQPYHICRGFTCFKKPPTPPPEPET

yeast importin-α 89-530, sequence (Q02821 89-530): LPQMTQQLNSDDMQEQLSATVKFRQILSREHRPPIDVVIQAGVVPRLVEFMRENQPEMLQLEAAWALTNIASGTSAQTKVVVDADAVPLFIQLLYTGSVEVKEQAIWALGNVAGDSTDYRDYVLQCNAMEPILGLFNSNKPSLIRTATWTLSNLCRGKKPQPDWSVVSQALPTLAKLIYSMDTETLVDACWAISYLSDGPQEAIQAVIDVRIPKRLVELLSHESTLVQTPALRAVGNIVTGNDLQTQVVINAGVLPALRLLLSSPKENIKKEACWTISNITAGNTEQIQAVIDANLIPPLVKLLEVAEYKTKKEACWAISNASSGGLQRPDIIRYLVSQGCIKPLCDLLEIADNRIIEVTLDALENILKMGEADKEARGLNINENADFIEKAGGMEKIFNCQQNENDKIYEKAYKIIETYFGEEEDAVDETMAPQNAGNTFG
Myc NLS NLS (Homo sapiens), sequence (P01106 whole entry, looked up): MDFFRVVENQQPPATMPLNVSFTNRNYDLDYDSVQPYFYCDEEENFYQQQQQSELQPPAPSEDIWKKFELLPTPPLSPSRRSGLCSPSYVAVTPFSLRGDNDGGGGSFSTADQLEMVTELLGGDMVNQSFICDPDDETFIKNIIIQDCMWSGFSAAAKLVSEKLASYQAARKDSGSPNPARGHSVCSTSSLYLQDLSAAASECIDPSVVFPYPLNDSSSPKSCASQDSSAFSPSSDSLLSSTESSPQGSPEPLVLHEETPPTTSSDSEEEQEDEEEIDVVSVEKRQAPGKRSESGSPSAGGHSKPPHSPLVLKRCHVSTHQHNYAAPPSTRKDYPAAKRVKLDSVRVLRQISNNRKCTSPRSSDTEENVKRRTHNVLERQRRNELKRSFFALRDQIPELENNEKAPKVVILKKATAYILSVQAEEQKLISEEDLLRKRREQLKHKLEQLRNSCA

The term Kd denotes a measure of binding affinity in units of concentration. As for “yeast importin-α 89-530 (from UniProt Q02821)”, the Kd in data set [1] was 6 nM; in data set [2], 9 nM.
